Measurements reported in paper PMC4411306, “Osmosensing and scaffolding functions of the oligomeric four-transmembrane domain osmosensor Sho1” (Nature Communications, 2015).
Substitutions are numbered along the chain they refer to. Names and notes keep the numbering of the source.

B1: HA-Sho1* T66C I94C (natural protein, Saccharomyces cerevisiae, UniProt P40073 1-367, looked up)
chain: MSISSKIRPTPRKPSRMATDHSFKMKKFYADPFAISSISLAIVSWVIAIGGSISSASTNESFPRFCWWGIVYQFLIISSLMLFYSFDLVDHYRCFITTSIAVAFVYNTNSATNLVYADGPKKAAASAGVILLSIINLIWILYYGGDNASPTNRWIDSFSIKGIRPSPLENSLHRARRRGNRNTTPYQNNVYNDAIRDSGYATQFDGYPQQQPSHTNYVSSTALAGFENTQPNTSEAVNLHLNTLQQRINSASNAKETNDNSNNQTNTNIGNTFDTDFSNGNTETTMGDTLGLYSDIGDDNFIYKAKALYPYDADDDDAYEISFEQNEILQVSDIEGRWWKARRANGETGIIPSNYVQLIDGPEEMHR
notes: Sho1, S. cerevisiae, Cys-less (C78S C85S) with Cys in TM2 and TM3; source: S. cerevisiae KT079 (sho1Δ), GAL1 promoter, in membrane fraction; not shown: HA, N-terminal, kept
B2: HA-Sho1* T66C (natural protein, Saccharomyces cerevisiae, UniProt P40073 1-367, looked up)
chain: B1 chain with C94I
notes: Sho1, S. cerevisiae, Cys-less (C78S C85S) with a single Cys in TM2; also called Sho1-FL-T66C; source: S. cerevisiae KT079 (sho1Δ), GAL1 promoter, in membrane fraction; not shown: HA, N-terminal, kept
B3: HA-Sho1* T112C (natural protein, Saccharomyces cerevisiae, UniProt P40073 1-367, looked up)
chain: B1 chain with C66T, C94I, T112C
notes: Sho1, S. cerevisiae, Cys-less (C78S C85S) with a single Cys in TM3; source: S. cerevisiae KT079 (sho1Δ), GAL1 promoter, in membrane fraction; not shown: HA, N-terminal, kept
B4: HA-Sho1* A123C (natural protein, Saccharomyces cerevisiae, UniProt P40073 1-367, looked up)
chain: B1 chain with C66T, C94I, A123C
notes: Sho1, S. cerevisiae, Cys-less (C78S C85S) with a single Cys; source: S. cerevisiae KT079 (sho1Δ), GAL1 promoter, in membrane fraction; not shown: HA, N-terminal, kept
B5: HA-Sho1* G50C (natural protein, Saccharomyces cerevisiae, UniProt P40073 1-367, looked up)
chain: B1 chain with G50C, C66T, C94I
notes: Sho1, S. cerevisiae, Cys-less (C78S C85S) with a single Cys in TM1; source: S. cerevisiae KT079 (sho1Δ), GAL1 promoter, in membrane fraction; in intact cells; not shown: HA, N-terminal, kept
B6: HA-Sho1* S54C (natural protein, Saccharomyces cerevisiae, UniProt P40073 1-367, looked up)
chain: B1 chain with S54C, C66T, C94I
notes: as for B4
B7: HA-Sho1*-A124C (natural protein, Saccharomyces cerevisiae, UniProt P40073 1-367, looked up)
chain: B1 chain with C66T, C94I, A124C
notes: Sho1, S. cerevisiae, Cys-less (C78S C85S) with a single Cys in TM4; source: S. cerevisiae KT079 (sho1Δ), GAL1 promoter, in membrane fraction; S. cerevisiae KY590-1, GAL1 promoter, in intact cells, then lysate; not shown: HA, N-terminal, kept
B8: HA-Sho1* I94C T112C (natural protein, Saccharomyces cerevisiae, UniProt P40073 1-367, looked up)
chain: B1 chain with C66T, T112C
notes: Sho1, S. cerevisiae, Cys-less (C78S C85S) with two Cys in TM3; source: S. cerevisiae KT079 (sho1Δ), GAL1 promoter, in membrane fraction; not shown: HA, N-terminal, kept
B9: HA-Sho1* G50C A124C (natural protein, Saccharomyces cerevisiae, UniProt P40073 1-367, looked up)
chain: B1 chain with G50C, C66T, C94I, A124C
notes: Sho1, S. cerevisiae, Cys-less (C78S C85S) with Cys in TM1 and TM4; also called G/C A/C; source: S. cerevisiae KT079 (sho1Δ), GAL1 promoter, in membrane fraction; not shown: HA, N-terminal, kept
B10: HA-Sho1* T66C T112C (natural protein, Saccharomyces cerevisiae, UniProt P40073 1-367, looked up)
chain: B1 chain with C94I, T112C
notes: Sho1, S. cerevisiae, Cys-less (C78S C85S) with Cys in TM2 and TM3; also called T/C T/C; source: S. cerevisiae KT079 (sho1Δ), GAL1 promoter, in membrane fraction; not shown: HA, N-terminal, kept
B11: HA-Sho1* N109C (natural protein, Saccharomyces cerevisiae, UniProt P40073 1-367, looked up)
chain: B1 chain with C66T, C94I, N109C
notes: as for B4
B12: HA-Sho1* V105C (natural protein, Saccharomyces cerevisiae, UniProt P40073 1-367, looked up)
chain: B1 chain with C66T, C94I, V105C
notes: as for B4
B13: HA-Sho1* I53C (natural protein, Saccharomyces cerevisiae, UniProt P40073 1-367, looked up)
chain: B1 chain with I53C, C66T, C94I
notes: as for B4

Tests used:
[1] = target: the molecule itself; assay: cross-linking; detergent-free membrane fraction of sho1Δ cells expressing a Cys mutant of HA-Sho1*; 0.2 mM bifunctional thiol crosslinker (o-PDM, p-PDM or BMH), 20 min, 25 °C; SDS–PAGE, anti-HA blot
[2] = target: the molecule itself; assay: cross-linking; membrane fraction of cells expressing a single-Cys mutant of HA-Sho1*; homo-trifunctional crosslinker TMEA; SDS–PAGE, anti-HA blot
[3] = target: the molecule itself; assay: cross-linking; spontaneous disulfide bond formation: membrane fractions without chemical crosslinker, SDS–PAGE without 2-ME, anti-HA blot

Protein | stoichiometry N [1] | stoichiometry N [2] | stoichiometry N [3]
B1 | 3 |  | 
B2 |  | 3 | 
B3 |  | 3 | 
B4 |  |  | 2
B5 |  | 2 | 
B6 |  |  | 2
B7 |  | 2 | 
B8 | 3 |  | 
B9 | 2 |  | 
B10 | 3 |  | 
B11 |  |  | 2
B12 |  |  | 2
B13 |  |  | 2
